# Measurements: patent US20240132578A1
# Experiments:
# Assay in all cases: cell-based or functional assay
# [1] = target: HIV-1 Env of isolate MGRM-A-008 (subtype A) (HIV-1)
# [2] = target: HIV-1 Env of isolate 94KE105 (subtype AC) (HIV-1)
# [3] = target: HIV-1 Env of isolate MGRM-D-020 (pseudovirus) (HIV-1)
# [4] = target: HIV-1 Env of isolate MGRM-A-005 (pseudovirus) (HIV-1)
# HIV-1 CMU02 Env (HIV-1) = target: HIV-1 CMU02 Env (HIV-1)
# [5] = target: HIV-1 Env of isolate MGRM-A-006 (pseudovirus) (HIV-1)
# [6] = target: HIV-1 JR-CSF Env W395A (HIV-1 (isolate JR-CSF)) (UniProt P20871)
# [7] = target: HIV-1 Env of isolate MGRM-AG-003 (subtype AG) (HIV-1)
# [8] = target: HIV-1 Env of pseudovirus isolate MGRM-C-015 (clade C) (HIV-1)
# [9] = target: HIV-1 JR-CSF Env I420A (HIV-1 (isolate JR-CSF)) (UniProt P20871)
# [10] = target: HIV-1 Env of isolate MGRM-AG-011 (subtype AG) (HIV-1)
# [11] = target: HIV-1 92TH021 Env (HIV-1)
# [12] = target: HIV-1 JR-CSF Env N392Q (HIV-1 (isolate JR-CSF)) (UniProt P20871)
# [13] = target: HIV-1 Env of isolate MGRM-Chronic-B-004 (HIV-1)
# [14] = target: HIV-1 Env of isolate MGRM-D-013 (pseudovirus) (HIV-1)
# [15] = target: HIV-1 JR-CSF Env F468A (HIV-1 (isolate JR-CSF)) (UniProt P20871)
# [16] = target: HIV-1 94UG103 Env (HIV-1)
# [17] = target: HIV-1 93IN905 Env (HIV-1)
# [18] = target: HIV-1 Env of pseudovirus MGRM-F1-013 (HIV-1)
# [19] = target: HIV-1 Env of isolate MGRM-G-019 (subtype G) (HIV-1)
# [20] = target: HIV-1 Env of isolate VLGCA1 (pseudovirus) (HIV-1)
# [21] = target: HIV-1 Env of isolate MGRM-G-001 (subtype G) (HIV-1)
Substance,"IC50, pseudovirus neutralization [1]","IC50, pseudovirus neutralization [2]","IC50 (µg/mL), pseudovirus neutralization [3]","IC50 (µg/mL), pseudovirus neutralization [4]","IC50 (µg/mL), pseudovirus neutralization [5]",Fold IC50 increase relative to wild-type (pseudovirus neutralization) [6],"IC50, pseudovirus neutralization [7]","IC50, pseudovirus neutralization [8]",Fold IC50 increase relative to wild-type (pseudovirus neutralization) [9],"IC50, pseudovirus neutralization [10]",Fold IC50 increase relative to wild-type (pseudovirus neutralization) [12],"IC50 (µg/mL), pseudovirus neutralization [13]","IC50 (µg/mL), pseudovirus neutralization [14]",Fold IC50 increase relative to wild-type (pseudovirus neutralization) [15],"IC50, pseudovirus neutralization [18]",other results
5147_N06 (PGT-130) (antibody),> 50 µg/mL,0.004 µg/mL,24.7 µg/mL,> 50 µg/mL,> 50 µg/mL,0.6 fold,0.041 µg/mL,0.344 µg/mL,9.8 fold,> 50 µg/mL,1.2 fold,0.01 µg/mL,0.429 µg/mL,0.4 fold,,"IC50, pseudovirus neutralization (HIV-1 CMU02 Env (HIV-1)): > 10 µg/mL; IC50, pseudovirus neutralization [11]: 0.0082 µg/mL; IC50, pseudovirus neutralization [16]: 0.635 µg/mL; IC50, pseudovirus neutralization [17]: 0.0182 µg/mL"
PGT-141 (4964_G22; 4993_K13) (antibody),,,,,,,,,,,,,,,0.043 µg/mL,
PGT-142 (4995_E20) (antibody),,,,,,,,,,,,,,,0.023 µg/mL,
PGT-145 (4995_P16) (antibody),,,,,,,,,,,,,,,0.402 µg/mL,
PGT-143 (4980_N08) (antibody),,,,,,,,,,,,,,,0.013 µg/mL,
5114_A19 (PGT-128) (antibody),> 50 µg/mL,0.007 µg/mL,0.011 µg/mL,> 50 µg/mL,> 50 µg/mL,0.8 fold,34.8 µg/mL,0.196 µg/mL,0.8 fold,3.93 µg/mL,0.9 fold,0.009 µg/mL,8.85 µg/mL,0.5 fold,,
PGT-144 (4970_K22) (antibody),,,,,,,,,,,,,,,0.509 µg/mL,
VRC01 (antibody),,,,,,,,,,,,,,,0.17 µg/mL,"IC50 (µg/mL), pseudovirus neutralization [19]: 0.06 µg/mL; IC50 (µg/mL), single-round pseudovirus neutralization [20]: 0.163 µg/mL; IC50 (µg/mL), pseudovirus neutralization [21]: 0.0371 µg/mL"
5136_H01 (PGT-131) (antibody),> 50 µg/mL,0.013 µg/mL,> 50 µg/mL,> 50 µg/mL,> 50 µg/mL,0.5 fold,2.92 µg/mL,1.01 µg/mL,153 fold,> 50 µg/mL,0.4 fold,0.04 µg/mL,4.14 µg/mL,1.6 fold,,
